Legend:
Assay in all cases: SPR
CD40 = CD40 (Homo sapiens (assumed), UniProt P25942)
IL36R = IL36R (Homo sapiens (assumed), UniProt Q9HB29)
IL17A = IL17A (Homo sapiens (assumed), UniProt Q16552)
IL17A, sequence (Q16552 24-155): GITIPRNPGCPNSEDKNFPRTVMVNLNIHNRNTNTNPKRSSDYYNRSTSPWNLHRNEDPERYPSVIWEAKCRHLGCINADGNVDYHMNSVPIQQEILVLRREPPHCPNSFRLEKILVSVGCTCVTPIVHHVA

IL36R, sequence (Q9HB29 20-335): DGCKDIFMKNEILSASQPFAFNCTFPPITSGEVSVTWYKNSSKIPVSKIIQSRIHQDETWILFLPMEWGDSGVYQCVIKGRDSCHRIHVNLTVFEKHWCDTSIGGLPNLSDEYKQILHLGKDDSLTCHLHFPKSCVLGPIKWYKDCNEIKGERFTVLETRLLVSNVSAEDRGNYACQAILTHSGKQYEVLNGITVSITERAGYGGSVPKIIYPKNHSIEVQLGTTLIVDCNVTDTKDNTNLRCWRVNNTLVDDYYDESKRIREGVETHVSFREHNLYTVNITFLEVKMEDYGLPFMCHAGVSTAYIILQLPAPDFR
CD40, sequence (P25942 21-193): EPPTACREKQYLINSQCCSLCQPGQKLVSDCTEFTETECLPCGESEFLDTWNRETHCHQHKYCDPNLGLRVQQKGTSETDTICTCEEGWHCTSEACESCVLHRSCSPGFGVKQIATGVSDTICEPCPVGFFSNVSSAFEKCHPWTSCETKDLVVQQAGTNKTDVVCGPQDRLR

B1: Ravagalimab (Fab, V domains shown)
VH: EVQLVESGGGLVKPGGSLRLSCAASGFTFSDYGMNWVRQAPGKGLEWIAYISSGRGNIYYADTVKGRFTISRDNAKNSLYLQMNSLRAEDTAVYYCARSWGYFDVWGQGTTVTVSS
VL: DIVMTQSPDSLAVSLGERATINCKSSQSLLNRGNQKNYLTWFQQKPGQPPKLLIYWASTRESGVPDRFSGSGSGTDFTLTISSLQAEDVAVYYCQNDYTYPLTFGQGTKLEIK
binding result (CD40): binds

B2: Spesolimab (Fab, V domains shown)
VH: QVQLVQSGAEVKKPGASVKVSCKASGYSFTSSWIHWVKQAPGQGLEWMGEINPGNVRTNYNENFRNKVTMTVDTSISTAYMELSRLRSDDTAVYYCTVVFYGEPYFPYWGQGTLVTVSS
VL: QIVLTQSPGTLSLSPGERATMTCTASSSVSSSYFHWYQQKPGQAPRLWIYRTSRLASGVPDRFSGSGSGTDFTLTISRLEPEDAATYYCHQFHRSPLTFGAGTKLEIK
binding result (IL36R): binds

B3: Afasevikumab (Fab, V domains shown)
VH: EVQLVESGGGLVQPGRSLRLSCAASGFTFDDYAMHWVRQAPGKGLEWVSGINWSSGGIGYADSVKGRFTISRDNAKNSLYLQMNSLRAEDTALYYCARDIGGFGEFYWNFGLWGRGTLVTVSS
VL: not shown
binding result (IL17A): binds
